Patent US20230321261A1, “AXL-SPECIFIC ANTIBODY-DRUG CONJUGATES FOR CANCER TREATMENT” (GENMAB A/S, priority 2016, published 2023)
Residue numbers refer to the chain shown, from its start. In names and notes the source's numbering stands.

Legend:
[1] = molecular target: T1, AXLECDHis (extracellular domain of human AXL) (Homo sapiens, UniProt P30530); assay: Binding affinity by Bio-Layer Interferometry (ForteBio OctetRED384); conditions: 1:1 model, 30° C.
T1 construct: the extracellular domain (ECD) of human AXL (aa 1-447) with a C-terminal His tag (AXLECDHis); His tag (C); made in house; host or cells: HEK-293F

[2] = molecular target: T2, AXL on A431 cells (Homo sapiens, UniProt P30530); assay: Antibody binding to A431 cells with or without Gas6 pre-incubation; conditions: for Antibody binding to A431 cells: EC50 in presence of Gas6 (µg/mL) mean (s.d.) / Antibody binding to A431 cells: Maximal binding in presence of Gas6 (% of binding in absence of Gas6) mean (s.d.): pre-incubation with 10 µg/mL Gas6; for Antibody binding to A431 cells: EC50 w/o Gas6 (µg/mL) mean (s.d.): without Gas6 pre-incubation
T2 construct: AXL-positive A431 cells were incubated; endogenous in cells; host or cells: A431

[3] = molecular target: T3, Gas6 binding to AXL on A431 cells (Homo sapiens, UniProt P30530); assay: Gas6 binding to A431 cells pre-incubated with AXL antibodies; conditions: pre-incubation with 10 µg/mL antibody; control antibody b12
T3 construct: endogenous in cells; host or cells: A431
Procedure: Alternatively, A431 cells were pre-incubated with 10 µg/mL AXL antibodies (15 minutes, 4° C.) to assess if the AXL ligand Gas6 could still bind in presence of AXL antibodies. […] After washing three times in PBS/0.1% BSA/0.02% azide, cells were incubated with mouse anti-Gas6 IgG2a (R&D Systems; cat no. MAB885) at 4° C. for 30 min. After washing three times in PBS/0.1% BSA/0.02% azide, cells were incubated with FITC-labelled goat anti-mouse IgG (Dako, Heverlee, Belgium; cat no. F049702) at 4° C. for 30 min in the dark. Next, cells were washed twice in PBS/0.1% BSA/0.02% azide, resuspended in 120 µL PBS/0.1% BSA/0.02% azide and analyzed on a FACS Cantoll (BD Biosciences).
(§1) Binding curves were analyzed using non-linear regression (sigmoidal dose-response with variable slope) using GraphPad Prism V5.04 software (GraphPad Software, San Diego, CA, USA).
Therefore, binding of Gas6 to A431 cells that had been pre-incubated with 10 µg/mL AXL antibodies was tested as described in Example 2.

[4] = molecular target: T4, full length human AXL (Homo sapiens, UniProt P30530); assay: Flow cytometry binding to transfected HEK293T cells; conditions: at least 3 experiments
T4 construct: expression constructs for full length human AXL; expressed in transfected cells; host or cells: HEK293T
Procedure: HEK293T cells were transiently transfected with expression constructs for full length human AXL, human AXL with a cynomolgus monkey extracellular domain (ECD) or human AXL with a mouse ECD (see Example 1). Binding of HuMab-AXL antibodies to these cells was evaluated by flow cytometry. Transfected HEK293 cells were incubated with serial dilutions of AXL-antibodies (final concentration range 0.0024-10 µg/mL) for 30 minutes at 4° C. […] Next, cells were washed twice in PBS/0.1% BSA/0.02% azide, resuspended in 120 µL PBS/0.1% BSA/0.02% azide and analyzed on a FACS Cantoll (BD Biosciences).
as §1

[5] = molecular target: T5, human AXL with a cynomolgus monkey extracellular domain (ECD) (Homo sapiens, UniProt P30530, P441T/S191N/S285L/T105A/T112A/T125N/T443A); assay: as above; conditions: at least 3 experiments
T5 construct: aa 1-447); human AXL transmembrane and intracellular part (the remainder of human AXL after the ECD; expressed in transfected cells; host or cells: HEK293T

[6] = molecular target: T6, human-mouse chimeric AXL mutants (Homo sapiens, UniProt P30530, A273L/A287V/A310S/E275K/E281D/G297E/H300L/L233V/M269V/N230H/P276S/P329T/Q227R/Q272W/R229H/S285L/S298K/S319P/T259N/T312S/V309I); assay: AXL domain specificity using human-mouse AXL chimeric molecules (flow cytometry); format: binding; conditions: 1 µg/mL antibody
T6 construct: constructs for expression of various full-length AXL variants were generated; expressed in transfected cells; host or cells: HEK293F

[7] = system: LCLC-103H xenograft tumors; assay: LCLC-103H xenograft model; format: in vivo, SCID mice; conditions: 3 mg/kg (Example 13, FIG. 14A)
Procedure: 5 × 10^6 LCLC-103H (large cell lung carcinoma) tumor cells (obtained from Leibniz-Institut DSMZ-Deutsche Sammlung von Mikroorganismen und Zellkulturen GmbH (DSMZ)) in 200 µL PBS were injected subcutaneously in the right flank of female SCID mice. Starting 14-21 days after tumor cell inoculation, when the average tumor size was >100-200 mm^3 and distinct tumor growth was observed, a single injection with 1 mg/kg (20 µg/mouse) IgG1-AXL-vcMMAE antibodies (as described in Supplementary Example 1) or control (unconjugated IgG1-b12) was given intraperitoneally (100 µL/mouse). Tumor volume was determined at least two times per week. Tumor volumes (mm^3) were calculated from caliper (PLEXX) measurements as: 0.52 × (length) × (width)^2.
(§2) Tumor induction was performed by subcutaneous injection of 5 × 10^6 A431 or LCLC-103H tumor cells (both obtained from Leibniz-Institut - Deutsche Sammlung von Mikroorganismen und Zellkulturen GmbH (DSMZ)) in 200 µL PBS in the right flank of female SCID mice. Treatment was started 14-21 days after tumor cell inoculation, when the average tumor size was >100-200 mm^3 and distinct tumor growth was observed. Mice received a single injection or a total of 4 biweekly intraperitoneal injections with IgG1-AXL-vcMMAE ADCs or control antibody (unconjugated IgG1-b12), as indicated. Tumor volume was determined at least two times per week. Tumor volumes (mm^3) were calculated from caliper (PLEXX) measurements as: 0.52 × (length) × (width)^2.

[8] = system: A431 tumors; assay: A431 xenograft model (high Gas6); format: in vivo, SCID mice; conditions: 3 mg/kg
Procedure: as §2

[9] = molecular target: T7, human AXL transiently expressed by HEK-293F cells (Homo sapiens, UniProt P30530); assay: Homogeneous antigen specific screening assay (FMAT); format: binding
T7 construct: TH1021-AXL (HEK-293F cells transiently expressing full length human AXL; produced as described above); expressed in transfected cells; host or cells: HEK-293F

B1: IgG1-AXL-511: AXL-specific human IgG1,κ antibody, VH SEQ ID NO:136, VL SEQ ID NO:140, Ig2 domain binding (antibody, listed as Homo sapiens, V domains shown)
VH: EVQLLESGGGLVQPGGSLRLSCAASGFTFSSYAMNWVRQAPGKGLEWVSGISGSGGHTYHADSVKGRFTISRDNSKNTLYLQMNSLRAEDTAVYYCAKDRYDILTGYYNLLDYWGQGTLVTVSS
VL: DIQMTQSPSSLSASVGDRVTITCRASQGISSWLAWYQQKPEEAPKSLIYAASSLQSGVPSRFSGSGSGTDFTLTISSLQPEDFATYYCQQYNSYPLTFGGGAKVEIK
- Binding affinity (OCTET) Kdis [1]: 0.0039 s⁻¹
- Binding affinity (OCTET) Kon [1]: 170000 M⁻¹ s⁻¹
- Antibody binding to A431 cells: EC50 in presence of Gas6 (µg/mL) mean (s.d.) [2]: 0.30 (0.31) µg/mL
- Antibody binding to A431 cells: Maximal binding in presence of Gas6 (% of binding in absence of Gas6) mean (s.d.) [2]: 93 (15) %
- Antibody binding to A431 cells: EC50 w/o Gas6 (µg/mL) mean (s.d.) [2]: 0.12 (0.11) µg/mL
- Gas6 binding to A431 cells: Maximal binding in presence of AXL antibodies (% of binding in presence of control antibody) mean (s.d.) [3]: 113 (6) %

B2: IgG1-AXL-183: AXL-specific human IgG1,κ antibody, VH SEQ ID NO:16, VL SEQ ID NO:18, FN1 domain binding (antibody, listed as Homo sapiens, V domains shown)
VH: QVQLQQWGAGLLKPSETLSLTCAVYGGSFSGYYWSWIRQPPGKGLEWIGEINQSGSTNYNPSLKSRVTISVDTSKNQFSLKLSSVTAADTSVYYCASGNWDHFFDYWGQGTLVTVSS
VL: DIQMTQSPSSVSASVGDRVTITCRASQGISSWLAWYQHKPGKAPKLLIYATSSLQSGVTSRFSGSGSGTDFTLTISSLQPEDFATYYCQQAKSFPWTFGQGTKVEIK
- Binding affinity (OCTET) Kdis [1]: 0.00042 s⁻¹
- Binding EC50 (µg/mL) human AXL Average (s.d.) [4]: 0.526 (0.177) µg/mL
- Binding EC50 (µg/mL) cynomolgus AXL Average (s.d.) [5]: 0.309 (0.086) µg/mL
- Antibody binding to A431 cells: EC50 in presence of Gas6 (µg/mL) mean (s.d.) [2]: 1.19 (1.11) µg/mL
- Antibody binding to A431 cells: Maximal binding in presence of Gas6 (% of binding in absence of Gas6) mean (s.d.) [2]: 90 (19) %
- Antibody binding to A431 cells: EC50 w/o Gas6 (µg/mL) mean (s.d.) [2]: 0.69 (0.72) µg/mL
- Gas6 binding to A431 cells: Maximal binding in presence of AXL antibodies (% of binding in presence of control antibody) mean (s.d.) [3]: 115 (8) %
- binding to hsAXL-mmFN1 [6]: reduced binding

B3: IgG1-AXL-733: AXL-specific human IgG1,κ antibody, VH SEQ ID NO:34, VL SEQ ID NO:35, FN1 domain binding (antibody, listed as Homo sapiens, V domains shown)
VH: QVQLVESGGGVVQPGRSLRLSCAASGFSFSTYAMHWVRQAPGKGLEWVAVISYDGDNKYSADSVKGRFTISRDNSKNTLYLQMNSLRAEDTAVYYCARGRKLGIDAFDIWGQGTMVTVSS
VL: AIQLTQSPSSLSASVGDRVTITCRASQGISSALAWYQQKPGKAPKLLIYDASSLESGVPSRFSGSGSGTDFTLTISGLQPEDFATYYCQQFNSYPFTFGPGTKVDIK
- Binding affinity (OCTET) Kdis [1]: 0.0097 s⁻¹
- Binding affinity (OCTET) Kon [1]: 160000 M⁻¹ s⁻¹
- Binding EC50 (µg/mL) human AXL Average (s.d.) [4]: 0.176 (0.094) µg/mL
- Binding EC50 (µg/mL) cynomolgus AXL Average (s.d.) [5]: 0.254 (0.114) µg/mL
- Antibody binding to A431 cells: EC50 in presence of Gas6 (µg/mL) mean (s.d.) [2]: 0.62 (0.23) µg/mL
- Antibody binding to A431 cells: Maximal binding in presence of Gas6 (% of binding in absence of Gas6) mean (s.d.) [2]: 93 (5) %
- Antibody binding to A431 cells: EC50 w/o Gas6 (µg/mL) mean (s.d.) [2]: 0.49 (0.51) µg/mL
- Gas6 binding to A431 cells: Maximal binding in presence of AXL antibodies (% of binding in presence of control antibody) mean (s.d.) [3]: 96 (5) %
- binding to hsAXL-mmFN1 [6]: reduced binding

B4: IgG1-AXL-183-vcMMAE (conjugate)
VH: B2 VH
VL: B2 VL
- anti-tumor activity in the LCLC-103H xenograft model [7]: tumor regression
- anti-tumor activity in the A431 xenograft model [8]: growth inhibition

B5: IgG1-AXL-726-vcMMAE (conjugate)
VH: QVQLQQWGAGLLKPSETLSLTCAIDGGSFSGYYWSWIRQPPGKGLEWIGEISHSGRTNYNPSLKSRVTISIDTSKNQFSLKLSSVAAADTAVYYCARFITMIRGAIITHFDYWGQGALVTVSS
VL: B1 VL with E42K, N92H, L96Y, G100Q, A102T, V104L
- anti-tumor activity in the LCLC-103H xenograft model [7]: tumor regression
- anti-tumor activity in the A431 xenograft model [8]: growth inhibition

B6: IgG1-AXL-183-N52Q: point mutant of IgG1-AXL-183, VH SEQ ID NO:17, VL SEQ ID NO:18 (antibody, listed as Homo sapiens, V domains shown)
VH: B2 VH with N52Q
VL: B2 VL
- Binding affinity (OCTET) Kdis [1]: 0.001 s⁻¹
- Binding affinity (OCTET) Kon [1]: 42000 M⁻¹ s⁻¹
- Binding EC50 (µg/mL) human AXL Average (s.d.) [4]: 0.350 (0.206) µg/mL
- Binding EC50 (µg/mL) cynomolgus AXL Average (s.d.) [5]: 0.324 (0.121) µg/mL

B7: IgG1-AXL-140: AXL-specific human IgG1,κ antibody, VH SEQ ID NO:3, VL SEQ ID NO:4 (antibody, listed as Homo sapiens, V domains shown)
VH: EVQLLESGGGLVQPGGSLRLSCAASGFTFSSYAMTWVRQAPGKGLEWVSAISISGASTFYADSVKGRFTISRDNSKNTLSLQMNSLRAEDTAVYFCRGYSGYVYDAFDIWGQGTMVTVSS
VL: B1 VL with S31N, E42K, A102T
- Maximal binding (Arbitrary units) [9]: 2889 Arbitrary units

B8: IgG1-AXL-187: AXL-specific human IgG1,κ antibody, VH SEQ ID NO:19, VL SEQ ID NO:20 (antibody, listed as Homo sapiens, V domains shown)
VH: B5 VH with Q3P, I24V, D25Y, Y33H, A86T, R97S, A105T, A117T
VL: B1 VL with E42K, N92H, L96Y, G100Q, A102T, V104L
- Maximal binding (Arbitrary units) [9]: 2563 Arbitrary units
